Test results from patent US20160264648A1 (OSAKA UNIVERSITY, published 2016).

B1: human monoclonal antibody (HuMAb) 1H11 (antibody, V domains shown)
VH: QVQLVQSGAEVKKPGSSVKVSCKSSGGNFNNYAVSWVRQAPGQGLEWMGGISPIFGSTNHAQKFQGRVTISADIFTNTAYMELSSLRSDDTAIYYCARGRGYYFYHAMDVWGQGSTVTVSS
VL: QSALTQPASVSGSPGQSITISCTGTSSDVGGYNYVSWYQQHPGEAPKLMISDVSNRPSGVSNRFSGSKSGNTASLTISGLQAEDEADYYCTSYTSSNTLVFGGGTKLTVL
B2: human monoclonal antibody (HuMAb) 2H5 (antibody, V domains shown)
VH: QVQLVQSGAEVKKPGSSVKVSCKSSGGNFNNYAVSWVRQAPGQGLEWMGGISPIFGSTNHAQKFQGRVTISADIFTNTAYMELSSLRSDDTAIYYCARGRGYYFYHAMDVWGQGSTVTVSS
VL: QSVLTQPPSVSAAPGQKVTISCSGSSSNIGHNFVSWYQQLPATAPKLLIYDTDKRPSGIPDRFSGSKSGTSATLGITGLQTGDEADYYCGTWDSSLSSVIFGGGTKLTVL

Legend:
[1] = biological target: hemagglutinin (HA) of influenza A virus A/Brisbane/59/2007 (seasonal H1N1) (influenza A virus A/Brisbane/59/2007 (H1N1sea)); experiment: cell-based or functional assay
[2] = biological target: hemagglutinin (HA) of influenza A virus A/Osaka/168/2009 (H1N1pdm) (influenza A virus A/Osaka/168/2009 (H1N1pdm)); experiment: cell-based or functional assay
[3] = biological target: hemagglutinin (HA) of influenza A virus A/PR8/1934 (seasonal H1N1) (influenza A virus A/PR8/1934 (H1N1sea)) (UniProt P03452); experiment: cell-based or functional assay
[4] = biological target: hemagglutinin (HA) of influenza A virus A/Suita/104/2011 (H1N1pdm) (influenza A virus A/Suita/104/2011 (H1N1pdm)); experiment: cell-based or functional assay
[5] = biological target: hemagglutinin (HA) of influenza A virus A/Suita/105/2011 (H1N1pdm) (influenza A virus A/Suita/105/2011 (H1N1pdm)); experiment: cell-based or functional assay
[6] = biological target: hemagglutinin (HA) of influenza A virus A/Suita/117/2011 (H1N1pdm) (influenza A virus A/Suita/117/2011 (H1N1pdm)); experiment: cell-based or functional assay
[7] = biological target: hemagglutinin (HA) of influenza A virus A/Turkey/Wisconsin/1/1966 (H9N2) (influenza A virus A/Turkey/Wisconsin/1/1966 (H9N2)) (UniProt P03457); experiment: cell-based or functional assay
[8] = biological target: hemagglutinin (HA) of influenza A virus A/Chicken/Egypt/R1MD12-3/2008 (H5N1) (influenza A virus A/Chicken/Egypt/RIMD12-3/2008 (H5N1)); experiment: cell-based or functional assay
[9] = biological target: hemagglutinin (HA) of influenza A virus A/Duck/Egypt/D1Br12/2007 (H5N1) (influenza A virus A/Duck/Egypt/D1Br12/2007 (H5N1)); experiment: cell-based or functional assay
[10] = biological target: hemagglutinin (HA) of influenza A virus A/PR8/1934 (seasonal H1N1) (influenza A virus A/PR8/1934 (H1N1sea), UniProt P03452 18-565); experiment: cell-based or functional assay
[11] = biological target: hemagglutinin (HA) of influenza A virus A/Turkey/Wisconsin/1/1966 (H9N2) (influenza A virus …, UniProt P03457 19-560); experiment: cell-based or functional assay
[12] = biological target: hemagglutinin (HA) of influenza A virus A/Aichi/2/1968 (H3N2) (influenza A virus A/Aichi/2/1968 (H3N2), UniProt P03437 17-566); experiment: IFA on virus-infected MDCK cells

Row | Molecule | Neutralization activity (VN50 value µg/ml) [1] [µg/mL] | Neutralization activity (VN50 value µg/ml) [2] [µg/mL] | Neutralization activity (VN50 value µg/ml) [3] [µg/mL] | Neutralization activity (VN50 value µg/ml) [4] [µg/mL] | Neutralization activity (VN50 value µg/ml) [5] [µg/mL] | Neutralization activity (VN50 value µg/ml) [6] [µg/mL] | Neutralization activity (VN50 value µg/ml) [7] [µg/mL] | Neutralization activity (VN50 value µg/ml) [8] [µg/mL] | Neutralization activity (VN50 value µg/ml) [9] [µg/mL] | Neutralization activity (VN50 value µg/ml) [10] [µg/mL] | Neutralization activity (VN50 value µg/ml) [11] [µg/mL] | binding result [12]
1 | mouse MAb C179 capable of exhibiting a broad reactivity with HAs belonging to group 1 (antibody) | 5.57 | 5.68 | 3.1 | 5.98 | 3.11 | 5.73 | 5.53 | – | – | – | – | –
2 | B1 | 2.89 | 0.78 | – | 11.3 | 11.4 | 11.6 | – | 6.12 | 6.08 | 2.87 | 11.8 | no binding
3 | B2 | 5.53 | 1.51 | – | 6 | 6.21 | 6.03 | – | 11.7 | 6.05 | 5.83 | > 100 | no binding
